The record followed here is publication PMC11310195.

Assay [1] has as its target 43S pre-initiation complex (40S + eIFs 1, 1A, 5, 3j, eIF2-TC and eIF3) (human) (UniProt P23396). Briefly: native gel or EMSA; 100 nM fluorescein-labeled Pdcd4 with 250 nM 40S, 43S or 48S; 37 °C 10 min; 20 mM Tris-acetate pH 7.5, 70 mM KCl, 2 mM MgCl2, 0.1 mM spermidine, 1 mM DTT, 10% glycerol, 0.1 mg/ml BSA, 0.5 mM ATP-Mg; 1% agarose gel in THEM buffer, 4 °C. (In general: In EMSA bound probe runs differently from free probe, usually more slowly.)

Assay [2] deals with 40S small ribosomal subunit (salt-washed) (human) (UniProt P23396). Briefly: fluorescence polarisation; anisotropy binding: 20 nM FL-Pdcd4-NTD with various amounts of 40S in the presence of saturating eIF1 and eIF1A. On the technique in general: Fluorescence polarisation rises when a labelled molecule tumbles more slowly, as on binding a larger partner.
Assay [3] deals with 43S pre-initiation complex (40S + eIFs 1, 1A, 5, 3j, eIF2-TC and eIF3) (human) (UniProt P23396). Kind of assay: fluorescence polarisation; anisotropy binding: 20 nM FL-Pdcd4-NTD with various amounts of 40S, in the absence or presence of 43S components (1 μM eIFs 1, 1A, 5, 550 nM eIF2-TC and eIF3); buffer of the native gel assay.
In assay [4] the target is 40S small ribosomal subunit (salt-washed) (human) (UniProt P23396). Briefly: fluorescence polarisation; anisotropy competition: 20 nM FL-Pdcd4-NTD + 50 nM 40S competed off by unlabeled Pdcd4 or its variants; 37 °C 10 min, then over 20 min at room temperature; buffer of the native gel assay.
For assay [5] the target is unchanged. Briefly: fluorescence polarisation; fluorescence anisotropy competition assay in solution: 20 nM FL-Pdcd4-NTD + 50 nM 40S competed off by 0-1000 nM unlabeled Pdcd4 or its variants; Kd of the labeled NTD set to 5 nM; same buffer as the native gel assay; 10 min at 37 C, then over 20 min at room temperature.
Assay [6] concerns the target fluorescein-labelled Pdcd4 N-terminal domain (residues 1-156) (human) (UniProt Q53EL6). Briefly: fluorescence polarisation; fluorescence anisotropy binding assay: 20 nM FL-Pdcd4-NTD, 40S titrated, with or without eIFs (1 uM eIFs 1, 1A, 5, 550 nM eIF2-TC and eIF3); 20 mM Tris-acetate pH 7.5, 70 mM KCl, 2 mM MgCl2, 0.1 mM spermidine, 1 mM DTT, 10% glycerol, 0.1 mg/ml BSA, 0.5 mM ATP-Mg; 37 C 10 min, then over 20 min at room temperature; fraction bound fitted with a quadratic equation.

pKd, pKi: −log10 of the molar value. “And” between values parts separate entries of the source, which are not always exact repeats. Equal values may be shown once. Some results are limits rather than exact numbers.

In the case of “fluorescein-labeled Pdcd4-NTD (FL-Pdcd4-NTD, residues 1-156) (from UniProt Q53EL6 1-156) (domain or fragment)”, the percent binding compared to the 40S lane in assay [1] is less than 20%. For the same substance, the fold reduction in affinity (against the 40S alone) in assay [2] is greater than 10 fold; in assay [3] it was greater than 100 fold.

“Pdcd4 (programmed cell death 4), wild type, residues 1-469 (from UniProt Q53EL6 1-469) (natural protein)”: the negative-log Ki (pKi) in assay [4] was 7.64.

Turning to “Pdcd4-NTD (residues 1-156), unlabeled (from UniProt Q53EL6 1-156) (domain or fragment)”, the pKi in assay [5] was 7.67 and 7.69 and 7.70; in assay [4], 7.68.

“human 40S small ribosomal subunit (from UniProt P23396 1-243) (complex)” had a pKd in assay [6] of 8.30.

As for “43S pre-initiation complex (40S with eIF1, eIF1A, eIF5, eIF2 ternary complex and eIF3) (from UniProt P23396 1-243; P41567 1-113; P47813 1-144; P55010 1-431; P55884 158-814; O75821 1-320; Q13347 1-325; O75822 1-258)”, in assay [6], the pKd is 5.52.

As to “Pdcd4 V123A/W124A (from UniProt Q53EL6 1-469) (natural protein)”, the pKi in assay [5] was 6.06 and 6.10 and 6.08.

On to “Pdcd4 K114A/K115A (from UniProt Q53EL6 1-469) (natural protein)”, for which the pKi in assay [5] is 5.80 and 5.86 and 5.83.

Turning to “40S subunit with saturating eIF1 and eIF1A (from UniProt P23396 1-243; P41567 1-113; P47813 1-144) (complex)”, in assay [6], the pKd was 7.15.

“wild-type Pdcd4 (residues 1-469), unlabeled (from UniProt Q53EL6 1-469) (natural protein)”: the pKi in assay [5] is 7.61 and 7.68 and 7.63.

“fluorescently modified recombinant Pdcd4 (FL-Pdcd4), full length (from UniProt Q53EL6 1-469) (natural protein)”: the percent binding compared to the 40S lane in assay [1] is less than 20%.

As usually defined, the pKi is the Ki on a negative log10 scale, so that one unit is a factor of ten. Usually pKd stands for −log10 of the Kd, conventionally taken in molar units. A high value points to a low Kd.
